Patent publication US5789216A, “Cloning and expression of human GMP synthetase, its use in screening for inhibitors of human GMP synthetase and inhibitors of human GMP synthetase” (Syntex (U.S.A.) Inc., priority 1995, dated 1998)
Read-outs that look alike come from different tables or passages of the source.

Assays:
[1] = partially purified, approximately 50-fold, human fibroblast cells; cited from earlier work
[2] = tested on: lymphocyte; conditions: can be blocked by exogenous guanosine; cited from earlier work
[3] = tested on: transplant rejection and rheumatoid arthritis; conditions: recent clinical trials; cited from earlier work
[4] = tested on: IMP dehydrogenase; conditions: cited from earlier work
[5] = Spectrophotometric-coupled assay of Spector (rate of AMP production; specific activity of enzyme preparations); assay type: biochemical
Excerpt: The medium will usually be a salt medium such as normal saline, phosphate buffer, or phosphate buffered saline containing additives well known to those skilled in the art and commercially available from a number of suppliers such as GIBCO and Hyclone. The cultured cells are then homogenized under conventional conditions such as, for example, sonication, freeze-thawing, and hypotonic lysis, and the cytosolic fraction is obtained by centrifugation and recovery of the supernatant. Differential salt fractionation, using, for example, ammonium sulfate, is employed to separate the GMP synthetase-richprotein fraction. Salt is then removed by one of a variety of known methods such as gel filtration, dialysis and the like. The desalted protein fraction is then subjected to anion exchange chromatography. […] Fractions showing GMP-synthetase activity are further subjected to hydrophobic interaction chromatography and a second purification via anion exchange chromatography. […] The assay measures the rate of production of AMP by GMP synthetase by coupling it to the oxidation of NADH via the auxiliary enzymes AMP kinase, pyruvate kinase and lactate dehydrogenase.
This assay measured the rate of AMP production by GMP synthetase, and the level of AMP is measured through the activity of three auxiliary enzymes. […] This rate is referred to as background rate.

[6] = tested on: GMP synthetase from Ehrlich ascites cells; conditions: cited from earlier work
[7] = purified enzyme, repeated purifications or single preparation

partially purified preparation from human fibroblast cells: GMP synthetase from human fibroblasts, purified approximately 50-fold by ammonium sulfate fractionation and gel filtration
specific activity [1]: 5990 pmoles guanine compound produced/min/mg

COc1c(C)c2c(c(O)c1C/C=C(\C)CCC(=O)O)C(=O)OC2 [mycophenolic acid]
inhibition of lymphocyte proliferation, correlated with lowering of the intracellular pool of guanine nucleotides [2]: inhibition of lymphocyte proliferation
effective in treatment of transplant rejection and rheumatoid arthritis [3]: effective
inhibitor of IMP dehydrogenase [4]: potent inhibitor

recombinant human GMP synthetase: baculoviral expressed human GMP synthetase purified from Sf-9 cells
specific activity [5, 7]: 3.0-4.4 μmol AMP produced/min/mg
specific activity ([5]; purified enzyme, repeated purifications or single preparation, listed as purified protein): 4.4 μmol AMP produced/min/mg

O=P(O)(O)OP(=O)(O)O [pyrophosphate]
inhibition of the enzyme by its reaction product [6]: inhibition

human GMP synthetase: purified human GMP synthetase from A3.01 cells, single Coomassie blue-staining band at 75 kDa
specific activity ([5]; Mono Q pool, purified from A3.01 cells): 3.0 μmol AMP/min-mg
specific activity [5, 7]: 2.5-4.0 μmol AMP produced/min/mg
